5/6‑FAM = 5/6-fluorescein amidite
Molecular target: KSBcl-2 (Kaposi's sarcoma-associated herpesvirus Bcl-2 homolog), c-myc-tagged (Kaposi's sarcoma-associated herpesvirus …, UniProt P90504 1-175)
Experiment: fluorescence polarisation

Row | Binder | Kd [nM]
1 | {5/6‑FAM}-RPQIWIHQGLQRLGDGLNAYYAR-NH2 [KL6-7] | 1.6
2 | {5/6‑FAM}-RPNIWLTQRLQRTGDGLNAYYAR-NH2 [KScomp] | 13
3 | {5/6‑FAM}-RPQIWIHQGLQRLGAGLNAYYAR-NH2 [KL6-7_D3fA] | 180
4 | {5/6‑FAM}-RPQIWIHQGLQRLGDGLNAYKAR-NH2 [KL6-7_Y4eK] | 2.9
5 | {5/6‑FAM}-RPIIWIGQEISRVGDRENAYYAR-NH2 [BL6-22] | 1100
6 | {5/6‑FAM}-RPIIWIGQEISRVGDRENAYKAR-NH2 [BL6-22_Y4eK] | 750
